Results: the supplement of paper PMC5998384

Experiments:
[1] = system: HeLa Kyoto; test: solubility in G1/S (NP-40 vs SDS abundance) (log2 ratio); higher = more soluble; conditions: cell cycle stage: G1/S
[2] = system: HeLa Kyoto; test: melting temperature (median over replicates), in situ; higher = more thermally stable
[3] = system: HeLa Kyoto; test: solubility change mitosis vs G1/S (difference of NP-40 vs SDS log2 ratios) (log2 ratio difference); higher = more soluble in mitosis
[4] = system: HeLa Kyoto; test: thermal stability score vs G1/S (z-score of summed log2 fold changes over temperatures); higher = more thermally stable than in G1/S
[5] = cell cycle stage: early G1 (4.5 h after nocodazole release)
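Throughout, for melting temperature (median over replicates), in situ: HeLa Kyoto cells synchronized by double thymidine or nocodazole block, proteins quantified by TMT10plex mass spectrometry, three independent biological replicates.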
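Throughout, for solubility change mitosis vs G1/S (difference of NP-40 vs SDS log2 ratios): synchronized HeLa Kyoto cells (double thymidine block for G1/S, nocodazole release for mitosis), protein amounts in NP-40 versus SDS lysates quantified by mass spectrometry, three biological replicates.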
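Throughout, for solubility in G1/S (NP-40 vs SDS abundance): HeLa Kyoto cells arrested at G1/S by double thymidine block, proteins quantified by TMT10plex mass spectrometry in mild NP-40 versus SDS extracts, three biological replicates.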
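Throughout, for thermal stability score vs G1/S (z-score of summed log2 fold changes over temperatures): synchronized HeLa Kyoto cells, proteins quantified by TMT10plex mass spectrometry, three biological replicates, mitosis taken 0.5 h after nocodazole release, G1/S directly after double thymidine block.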

Sequence of STK24 (chain, as listed by the source): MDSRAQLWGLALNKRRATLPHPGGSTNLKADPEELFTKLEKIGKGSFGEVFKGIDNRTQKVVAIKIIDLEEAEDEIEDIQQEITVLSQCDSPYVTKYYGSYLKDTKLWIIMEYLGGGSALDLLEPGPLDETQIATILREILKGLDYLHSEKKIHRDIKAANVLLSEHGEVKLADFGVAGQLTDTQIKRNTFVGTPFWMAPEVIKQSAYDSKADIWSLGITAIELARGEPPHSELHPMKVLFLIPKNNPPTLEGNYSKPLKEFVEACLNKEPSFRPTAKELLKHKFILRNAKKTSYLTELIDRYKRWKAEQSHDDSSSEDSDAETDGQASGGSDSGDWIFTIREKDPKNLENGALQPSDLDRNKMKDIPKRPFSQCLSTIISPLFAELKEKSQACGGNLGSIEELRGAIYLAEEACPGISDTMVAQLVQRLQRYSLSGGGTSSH

Substance	solubility in G1/S (log2) [1]	melting temperature ([2]; cell cycle stage: G1/S) [°C]	melting temperature ([2]; cell cycle stage: mitosis) [°C]	solubility change mitosis (log2) [3]	thermal stability score [4, 5]	thermal stability score ([4]; cell cycle stage: mitosis)
MLKPQPLQQPSQPQQPPPTQQAVARRPPGGTSPPNGGLPGPLATSAAPPGPPAAASPCLGPVAAAGSGLRRGAEGILAPQPPPPQQHQERPGAAAIGSARGQSTGKGPPQSPVFEGVYNNSRMLHFLTAVVGSTCDVKVKNGTTYEGIFKTLSSKFELAVDAVHRKASEPAGGPRREDIVDTMVFKPSDVMLVHFRNVDFNYATKDKFTDSAIAMNSKVNGEHKEKVLQRWEGGDSNSDDYDLESDMSNGWDPNEMFKFNEENYGVKTTYDSSLSSYTVPLEKDNSEEFRQRELRAAQLAREIESSPQYRLRIAMENDDGRTEEEKHSAVQRQGSGRESPSLASREGKYIPLPQRVREGPRGGVRCSSSRGGRPGLSSLPPRGPHHLDNSSPGPGSEARGINGGPSRMSPKAQRPLRGAKTLSSPSNRPSGETSVPPPPAVGRMYPPRSPKSAAPAPISASCPEPPIGSAVPTSSASIPVTSSVSDPGVGSISPASPKISLAPTDVKELSTKEPGRTLEPQELARIAGKVPGLQNEQKRFQLEELRKFGAQFKLQPSSSPENSLDPFPPRILKEEPKGKEKEVDGLLTSEPMGSPVSSKTESVSDKEDKPPLAPSGGTEGPEQPPPPCPSQTGSPPVGLIKGEDKDEGPVAEQVKKSTLNPNAKEFNPTKPLLSVNKSTSTPTSPGPRTHSTPSIPVLTAGQSGLYSPQYISYIPQIHMGPAVQAPQMYPYPVSNSVPGQQGKYRGAKGSLPPQRSDQHQPASAPPMMQAAAAAGPPLVAATPYSSYIPYNPQQFPGQPAMMQPMAHYPSQPVFAPMLQSNPRMLTSGSHPQAIVSSSTPQYPSAEQPTPQALYATVHQSYPHHATQLHAHQPQPATTPTGSQPQSQHAAPSPVQHQAGQAPHLGSGQPQQNLYHPGALTGTPPSLPPGPSAQSPQSSFPQPAAVYAIHHQQLPHGFTNMAHVTQAHVQTGITAAPPPHPGAPHPPQVMLLHPPQSHGGPPQGAVPQSGVPALSASTPSPYPYIGHPQGEQPGQAPGFPGGADDRIREFSLAGGIWHGRAEGLQVGQDARVLGGE [ATXN2L]	-0.0191	52.3	53.2	0.367	-0.388	-1.51
STK24	0.479	51.7	52.3	-0.0565	4.29	2.12
MLRMRTAGWARGWCLGCCLLLPLSLSLAAAKQLLRYRLAEEGPADVRIGNVASDLGIVTGSGEVTFSLESGSEYLKIDNLTGELSTSERRIDREKLPQCQMIFDENECFLDFEVSVIGPSQSWVDLFEGQVIVLDINDNTPTFPSPVLTLTVEENRPVGTLYLLPTATDRDFGRNGIERYELLQEPGGGGSGGESRRAGAADSAPYPGGGGNGASGGGSGGSKRRLDASEGGGGTNPGGRSSVFELQVADTPDGEKQPQLIVKGALDREQRDSYELTLRVRDGGDPPRSSQAILRVLITDVNDNSPRFEKSVYEADLAENSAPGTPILQLRAADLDVGVNGQIEYVFGAATESVRRLLRLDETSGWLSVLHRIDREEVNQLRFTVMARDRGQPPKTDKATVVLNIKDENDNVPSIEIRKIGRIPLKDGVANVAEDVLVDTPIALVQVSDRDQGENGVVTCTVVGDVPFQLKPASDTEGDQNKKKYFLHTSTPLDYEATREFNVVIVAVDSGSPSLSSNNSLIVKVGDTNDNPPMFGQSVVEVYFPENNIPGERVATVLATDADSGKNAEIAYSLDSSVMGIFAIDPDSGDILVNTVLDREQTDRYEFKVNAKDKGIPVLQGSTTVIVQVADKNDNDPKFMQDVFTFYVKENLQPNSPVGMVTVMDADKGRNAEMSLYIEENNNIFSIENDTGTIYSTMSFDREHQTTYTFRVKAVDGGDPPRSATATVSLFVMDENDNAPTVTLPKNISYTLLPPSSNVRTVVATVLATDSDDGINADLNYSIVGGNPFKLFEIDPTSGVVSLVGKLTQKHYGLHRLVVQVNDSGQPSQSTTTLVHVFVNESVSNATAIDSQIARSLHIPLTQDIAGDPSYEISKQRLSIVIGVVAGIMTVILIILIVVMARYCRSKNKNGYEAGKKDHEDFFTPQQHDKSKKPKKDKKNKKSKQPLYSSIVTVEASKPNGQRYDSVNEKLSDSPSMGRYRSVNGGPGSPDLARHYKSSSPLPTVQLHPQSPTAGKKHQAVQDLPPANTFVGAGDNISIGSDHCSEYSCQTNNKYSKQMRLHPYITVFG [PCDH7]	0.215	55.1	53.4	-0.075	-1.64	-1.07
MGSRIKQNPETTFEVYVEVAYPRTGGTLSDPEVQRQFPEDYSDQEVLQTLTKFCFPFYVDSLTVSQVGQNFTFVLTDIDSKQRFGFCRLSSGAKSCFCILSYLPWFEVFYKLLNILADYTTKRQENQWNELLETLHKLPIPDPGVSVHLSVHSYFTVPDTRELPSIPENRNLTEYFVAVDVNNMLHLYASMLYERRILIICSKLSTLTACIHGSAAMLYPMYWQHVYIPVLPPHLLDYCCAPMPYLIGIHLSLMEKVRNMALDDVVILNVDTNTLETPFDDLQSLPNDVISSLKNRLKKVSTTTGDGVARAFLKAQAAFFGSYRNALKIEPEEPITFCEEAFVSHYRSGAMRQFLQNATQLQLFKQFIDGRLDLLNSGEGFSDVFEEEINMGEYAGSDKLYHQWLSTVRKGSGAILNTVKTKANPAMKTVYKFAKDHAKMGIKEVKNRLKQKDIAENGCAPTPEEQLPKTAPSPLVEAKDPKLREDRRPITVHFGQVRPPRPHVVKRPKSNIAVEGRRTSVPSPEQPQPYRTLRESDSAEGDEAESPEQQVRKSTGPVPAPPDRAASIDLLEDVFSNLDMEAALQPLGQAKSLEDLRAPKDLREQPGTFDYQRLDLGGSERSRGVTVALKLTHPYNKLWSLGQDDMAIPSKPPAASPEKPSALLGNSLALPRRPQNRDSILNPSDKEEVPTPTLGSITIPRPQGRKTPELGIVPPPPIPRPAKLQAAGAALGDVSERLQTDRDRRAALSPGLLPGVVPQGPTELLQPLSPGPGAAGTSSDALLALLDPLSTAWSGSTLPSRPATPNVATPFTPQFSFPPAGTPTPFPQPPLNPFVPSMPAAPPTLPLVSTPAGPFGAPPASLGPAFASGLLLSSAGFCAPHRSQPNLSALSMPNLFGQMPMGTHTSPLQPLGPPAVAPSRIRTLPLARSSARAAETKQGLALRPGDPPLLPPRPPQGLEPTLQPSAPQQARDPFEDLLQKTKQDVSPSPALAPAPDSVEQLRKQWETFE [DENND1A]	0.079		53.6	-0.0536	0.0881	1.02
